# Several values for one entry are separate records, joined by “and”; a condition that tells them apart may be missing. Identical values can stand only once.
# Target: RSV F protein (immobilised antigen of Example 6.1) (respiratory syncytial virus)
# Assay: BIAcore
# RSV F protein (immobilised antigen of Example 6.1) (respiratory syncytial virus), sequence (P03420 26-524): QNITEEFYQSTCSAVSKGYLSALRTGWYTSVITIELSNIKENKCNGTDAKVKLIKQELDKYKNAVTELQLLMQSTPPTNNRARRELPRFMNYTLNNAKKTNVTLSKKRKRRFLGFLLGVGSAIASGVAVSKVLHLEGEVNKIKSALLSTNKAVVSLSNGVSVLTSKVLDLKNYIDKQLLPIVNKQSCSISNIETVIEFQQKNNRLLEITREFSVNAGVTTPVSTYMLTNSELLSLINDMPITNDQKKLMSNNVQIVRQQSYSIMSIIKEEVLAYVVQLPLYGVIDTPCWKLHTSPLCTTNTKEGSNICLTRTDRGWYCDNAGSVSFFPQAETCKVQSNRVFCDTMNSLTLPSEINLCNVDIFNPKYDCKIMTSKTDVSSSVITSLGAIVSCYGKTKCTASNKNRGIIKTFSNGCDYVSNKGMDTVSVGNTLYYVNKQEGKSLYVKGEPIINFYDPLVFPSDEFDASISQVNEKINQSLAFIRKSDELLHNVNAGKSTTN
Binder,koff,kon
"H3-3F4 Fab (Fab, V domains shown) VH: QVTLRESGPALVKPTQTLTLTCTFSGFSLSTAGMSVGWIRQPPGKALEWLADIWWDDKKDYNPSLKSRLTISKDTSKNQVVLKVTNMDPADTATYYCARDMIFNWYFDVWGQGTTVTVSS VL: DIQMTQSPSTLSASVGDRVTITCSASSSVGYMHWYQQKPGKAPKLLIYDTFKLASGVPSRFSGSGSGTEFTLTISSLQPDDFATYYCFQGSGYPFTFGGGTKVEIK",0.000445 s⁻¹ and 0.000402 s⁻¹,–
"DG (aka D95/G93) Fab (Fab, V domains shown) VH: QVTLRESGPALVKPTQTLTLTCTFSGFSLSTAGMSVGWIRQPPGKALEWLADIWWDDKKDYNPSLKSRLTISKDTSKNQVVLKVTNMDPADTATYYCARDMITNFYFDVWGQGTTVTVSS VL: DIQMTQSPSTLSASVGDRVTITCSASSSVGYMHWYQQKPGKAPKLLIYDTFKLASGVPSRFSGSGSGTEFTLTISSLQPDDFATYYCFQGSGYPFTFGGGTKVEIK",0.000167 s⁻¹ and 0.000444 s⁻¹,–
"L1-7E5 Fab (Fab, V domains shown) VH: QVTLRESGPALVKPTQTLTLTCTFSGFSLSTAGMSVGWIRQPPGKALEWLADIWWDDKKDYNPSLKSRLTISKDTSKNQVVLKVTNMDPADTATYYCARDMITNFYFDVWGQGTTVTVSS VL: DIQMTQSPSTLSASVGDRVTITCSASSRVGYMHWYQQKPGKAPKLLIYDTFKLASGVPSRFSGSGSGTEFTLTISSLQPDDFATYYCFQGSGYPFTFGGGTKVEIK",0.000192 s⁻¹ and 0.000331 s⁻¹ and 0.000229 s⁻¹,–
"M3H9 Fab (Fab, V domains shown) VH: QVTLRESGPALVKPTQTLTLTCTFSGFSLSTAGMSVGWIRQPPGKALEWLADIWWDDKKDYNPSLKSRLTISKDTSKNQVVLKVTNMDPADTATYYCARDMIFNWYFDVWGQGTTVTVSS VL: DIQMTQSPSTLSASVGDRVTITCSASSSVGYMHWYQQKPGKAPKLLIYDTYKQTSGVPSRFSGSGSGTEFTLTISSLQPDDFATYYCFQGSGYPFTFGGGTKVEIK",0.000338 s⁻¹,605000 M⁻¹ s⁻¹
"Y10H6 Fab (Fab, V domains shown) VH: QVTLRESGPALVKPTQTLTLTCTFSGFSLSTAGMSVGWIRQPPGKALEWLADIWWDDKKDYNPSLKSRLTISKDTSKNQVVLKVTNMDPADTATYYCARDMIFNWYFDVWGQGTTVTVSS VL: DIQMTQSPSTLSASVGDRVTITCSASSSVGYMHWYQQKPGKAPKLLIYDTRYLSSGVPSRFSGSGSGTEFTLTISSLQPDDFATYYCFQGSGYPFTFGGGTKVEIK",0.000462 s⁻¹,757000 M⁻¹ s⁻¹
"P12f4 Fab (Fab, V domains shown) VH: QVTLRESGPALVKPTQTLTLTCTFSGFSLSTPGMSVGWIRQPPGKALEWLADIWWDGKKHYNPSLKDRLTISKDTSKNQVVLKVTNMDPADTATYYCARDMIFNFYFDVWGQGTTVTVSS VL: DIQMTQSPSTLSASVGDRVTITCSLSSRVGYMHWYQQKPGKAPKLLIYDTRGLPSGVPSRFSGSGSGTEFTLTISSLQPDDFATYYCFQGSGYPFTFGGGTKVEIK",0.000299 s⁻¹,527000 M⁻¹ s⁻¹
"6H8 Fab (Fab, V domains shown) VH: QVTLRESGPALVKPTQTLTLTCTFSGFSLSTAGMSVGWIRQPPGKALEWLADIWWDDKKDYNPSLKSRLTISKDTSKNQVVLKVTNMDPADTATYYCARDMITNFYFDVWGQGTTVTVSS VL: DIQMTQSPSTLSASVGDRVTITCSASSSVGYMHWYQQKPGKAPKLLIYDTFKLTSGVPSRFSGSGSGTEFTLTISSLQPDDFATYYCFQGSGYPFTFGGGTKVEIK",0.000178 s⁻¹ and 0.000473 s⁻¹,314000 M⁻¹ s⁻¹ and 444000 M⁻¹ s⁻¹

# Source: patent publication US20100098708A1
